Reference: PMC6160142, “Structural and biochemical characterization of the Cutibacterium acnes exo-β-1,4-mannosidase that targets the N-glycan core of host glycoproteins” (PLoS ONE, 2018)

Assays:
[1] = system: O=[N+]([O-])c1ccc(O[C@@H]2O[C@H](CO)[C@@H](O)[C@H](O)[C@@H]2O)cc1; test: purified protein; settings: stated pHopt and Topt (pH 6.5, 60 °C; methods for pNP sugars give 50 mM sodium phosphate pH 6.0, 50 °C, 10 min); 0.5 to 20 mM substrate
[2] = biological target: CaMan5_18, exo-β-1,4-mannosidase (GH5 subfamily 18) from Cutibacterium acnes strain 266 (Cutibacterium acnes strain 266); test: SEC; HiLoad 16/60 Superdex 200 prep grade in 25 mM K2HPO4 pH 7.2, 150 mM NaCl, calibrated with five protein standards

| Substance | Km [1] | kcat [1] | kcat/Km [1] | stoichiometry N [2] |
| --- | --- | --- | --- | --- |
| CaMan5_18 (Cutibacterium acnes subsp. acnes) | 10.4 mM | 7.8 s⁻¹ | 750 M⁻¹ s⁻¹ | – |
| CaMan5_18, exo-β-1,4-mannosidase (GH5 subfamily 18) from Cutibacterium acnes strain 266 (enzyme) | – | – | – | 2 |
